Assays:
[1] = target: T1, recombinant human DLL1 (human, UniProt O00548 18-540, limits assumed); assay: ELISA, plate-bound recombinant human DLL1 (1 µg/mL), anti-mouse IgG-HRP/TMB, % of positive control max
T1 sequence (looked up): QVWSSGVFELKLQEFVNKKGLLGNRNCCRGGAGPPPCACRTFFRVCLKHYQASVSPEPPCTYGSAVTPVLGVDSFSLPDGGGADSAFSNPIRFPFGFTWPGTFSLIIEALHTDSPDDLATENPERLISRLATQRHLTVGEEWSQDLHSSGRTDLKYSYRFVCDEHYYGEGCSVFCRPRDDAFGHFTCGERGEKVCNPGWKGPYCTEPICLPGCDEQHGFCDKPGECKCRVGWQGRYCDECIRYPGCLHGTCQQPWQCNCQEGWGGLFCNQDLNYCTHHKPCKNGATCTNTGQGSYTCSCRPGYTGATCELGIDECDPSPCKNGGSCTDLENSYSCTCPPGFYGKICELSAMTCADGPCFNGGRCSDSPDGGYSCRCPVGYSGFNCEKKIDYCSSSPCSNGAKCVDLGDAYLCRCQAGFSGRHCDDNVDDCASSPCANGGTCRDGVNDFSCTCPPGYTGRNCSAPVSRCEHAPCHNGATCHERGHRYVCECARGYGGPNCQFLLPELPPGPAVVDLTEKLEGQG
Method in brief: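 Binding read by anti-mouse IgG-HRP with TMB substrate against wells coated with recombinant human DLL1 (1 μg/ml) or DLL4 (0.5 μg/ml) to test cross-reactivity of anti-DLL3 antibodies. Signals normalized to the corresponding positive control antibody.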

[2] = target: T2, extracellular domain (ECD) of human DLL3 (AdipoGen Life Sciences) (human, UniProt Q9NYJ7 27-492); assay: SPR (Biacore 8K), 37 C, antibody captured on anti-mouse Fc; same values as in Table 36
T2 construct: Bought and further purified by size exclusion chromatography; also called hDLL3 ECD; DLL3 ECD
T2 sequence: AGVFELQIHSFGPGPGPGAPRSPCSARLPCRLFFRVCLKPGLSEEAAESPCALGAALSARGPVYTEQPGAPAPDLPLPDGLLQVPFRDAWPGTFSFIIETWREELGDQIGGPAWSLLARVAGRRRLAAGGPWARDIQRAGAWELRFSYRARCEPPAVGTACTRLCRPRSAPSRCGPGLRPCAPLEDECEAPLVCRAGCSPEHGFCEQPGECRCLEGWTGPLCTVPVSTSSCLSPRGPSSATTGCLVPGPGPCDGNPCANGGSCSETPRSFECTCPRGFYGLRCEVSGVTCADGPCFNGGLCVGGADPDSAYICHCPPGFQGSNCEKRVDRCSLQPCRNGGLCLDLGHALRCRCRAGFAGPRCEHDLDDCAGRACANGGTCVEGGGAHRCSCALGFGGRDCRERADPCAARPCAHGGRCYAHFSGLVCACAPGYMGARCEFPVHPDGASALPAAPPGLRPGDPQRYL
Excerpt: (§1) The binding kinetics of different anti-DLL3 antibodies to recombinant proteins of different domains of human DLL3 were studied by surface plasmon resonance (SPR) using a Biacore™ 8K instrument. These anti-DLL3 antibodies were produced from mouse hybridomas, and each included a heavy chain variable region and light chain variable region described herein. Briefly, antibodies recognizing human IgG Fc and antibodies recognizing mouse IgG Fc were immobilized on different channels of a Biacore™ 8K chip to allow simultaneous analysis of human and murine anti-DLL3 antibodies. Murine anti-DLL3 antibodies were captured on the anti-mouse Fc channel of the Biacore chip. The human anti-DLL3 antibody from Stemcentrx (San Francisco, Calif.) was used as a control and was captured onto anti-human Fc channel of the Biacore™ chip. Different concentrations of DLL3 ECD, DLL3 N-terminal domain, EGF2-6, EGF3-6, EGF4-6, or EGF5-6 domains of DLL3 were injected. Experiments were performed at 37° C. Biacore™ 8K evaluation software was used for all data analysis. To obtain kinetic rate constants double-referenced data were fit to a 1:1 interaction model using Biacore™ 8K Evaluation software (GE Healthcare, Marlborough, Mass.). The equilibrium binding constant KD was determined by the ratio of binding rate constants kd/kₐ.
(§2) Table 36 lists the calculated binding kinetics (KD). […]

[3] = target: T3, recombinant His-tagged EGF2-6 domains of human DLL3 (human, UniProt Q9NYJ7 274-492, limits assumed); assay: SPR (Biacore 8K), 37 C, antibody captured on anti-mouse Fc, DLL3 domain construct injected, 1:1 fit
T3 sequence: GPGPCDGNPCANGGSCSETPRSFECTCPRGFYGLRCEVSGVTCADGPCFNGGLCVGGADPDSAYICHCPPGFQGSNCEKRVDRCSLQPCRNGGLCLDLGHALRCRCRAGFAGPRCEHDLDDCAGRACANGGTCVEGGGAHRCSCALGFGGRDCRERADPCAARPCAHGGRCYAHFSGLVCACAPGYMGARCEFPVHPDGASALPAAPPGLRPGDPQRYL
Excerpt: as §1
(§3) The binding epitope on DLL3 by the anti-DLL3 antibody which included a heavy chain variable region and light chain variable region of clone 5E7 (see Table 2) was identified by SPR analysis at 37° C.

[4] = target: T4, recombinant His-tagged EGF4-6 domains of human DLL3 (human, UniProt Q9NYJ7 353-492, limits assumed); assay: as above
T4 sequence: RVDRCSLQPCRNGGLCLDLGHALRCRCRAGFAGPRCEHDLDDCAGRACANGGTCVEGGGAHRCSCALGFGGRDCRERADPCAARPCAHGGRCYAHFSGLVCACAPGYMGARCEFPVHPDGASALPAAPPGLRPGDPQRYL
Excerpt: as §1, §3

[5] = target: T5, recombinant human DLL3 (ELISA coat) (human, UniProt Q9NYJ7 27-492); assay: ELISA, plate coated with recombinant human DLL3 0.5 µg/ml, anti-mouse IgG-HRP
T5 sequence: T2 sequence
Method in brief: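 Antibody binding measured on plates coated with recombinant human DLL3 at 0.5 μg/ml, detected with anti-mouse IgG-HRP and TMB substrate. Signals normalized to the matching positive control antibody; EC₅₀ calculated from binding curves.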

[6] = target: T2, extracellular domain (ECD) of human …; assay: SPR (Biacore 8K), 37 C, antibody captured on anti-mouse Fc; same values as in Table 36; 37 C; hDLL3 ECD construct
Excerpt: as §1, §2

B1: murine anti-DLL3 antibody clone 5E7 (antibody, V domains shown)
VH: EVQLQQSGAELVRPGASVKLSCTASGFNIKDDYIHWVKQWPEQGLEWIGWIDSENGDTEYASKFQGKATMTADTSSNTAYLQLSGLTSEDTAVYYCTTSSYYSYDLFVYWGQGTLVTVSA
VL: DVLMTQTPLTLSVPIGQPASISCKSSQSLLHSNGKTYLNWLLQRPGQSPKLLIYLVSKLESGVPDRFSGSGSGTDFTLKISRVEAEDLGVYYCLQTTHLYTFGGGTKLEIK
notes: Murine antibody produced from a mouse hybridoma, captured on anti-mouse Fc in SPR; also called m5E7; murine 5E7
binding result [1]: no binding
Kd [2]: 0.203 nM
koff [2]: 6.47e-05 s⁻¹
Kd [3]: 0.669 nM
koff [3]: 0.000382 s⁻¹
kon [3]: 570000 M⁻¹ s⁻¹
Kd [4]: 1.12 nM
koff [4]: 0.00061 s⁻¹
kon [4]: 546000 M⁻¹ s⁻¹
EC50 [5]: 0.07 nM
kon [6]: 319000 M⁻¹ s⁻¹

Source: patent US20210221894A1 (DRAGONFLY THERAPEUTICS, published 2021)
